What is called Kd is the concentration at which binding is half-saturated. Lower therefore signals higher affinity.

For test [1], the target named is Arabidopsis histone H2A (HTA1)-H2B (HTB1) dimer, Q9LD28;Q9LQQ4. As to the kind of experiment: ITC. (In general: Isothermal titration calorimetry measures the heat released or taken up as one component is titrated into another.)
The target of test [2] is Arabidopsis histone H2A (HTA1)-H2B (HTB1) dimer (Arabidopsis thaliana) (UniProt Q9LD28). The test can be described thus: ITC; MicroCal iTC200; OsChz1-C or its mutants injected into histone H2A-H2B or H2A.Z-H2B solutions; 19 injections of 2 μl.
The target in test [3] is Arabidopsis histone variant H2A.Z (HTA9)-H2B (HTB1) dimer (Arabidopsis thaliana) (UniProt Q9C944). The description is as above.

Chain of Arabidopsis histone H2A (HTA1)-H2B (HTB1) dimer (Arabidopsis thaliana) (Q9LD28 whole entry, chain 1 of 2): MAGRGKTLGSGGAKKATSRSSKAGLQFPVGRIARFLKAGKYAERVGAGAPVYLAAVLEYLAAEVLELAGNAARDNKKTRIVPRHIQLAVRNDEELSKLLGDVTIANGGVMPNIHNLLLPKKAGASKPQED
Chain of Arabidopsis histone H2A (HTA1)-H2B (HTB1) dimer (Arabidopsis thaliana) (Q9LQQ4 whole entry, chain 2 of 2, further chain): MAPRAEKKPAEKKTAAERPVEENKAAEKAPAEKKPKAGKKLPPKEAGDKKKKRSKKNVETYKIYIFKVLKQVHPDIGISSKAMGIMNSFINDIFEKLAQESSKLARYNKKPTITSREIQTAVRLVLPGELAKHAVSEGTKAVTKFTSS

Consider OsChz1-C (OsChz1 338–471), wild type 1M, for which the dissociation constant (Kd) in test [1] is 150 nM.
Substance OsChz1-C (OsChz1 338–471), wild type 3M gave an equilibrium dissociation constant (Kd) in test [1] of 146 nM.
Take “OsChz1-C (OsChz1 338–471), wild type (domain or fragment)”: the Kd in test [2] came out at 9.8 nM; in test [3], 64.1 nM.
OsChz1-C (OsChz1 338–471), wild type 2M displayed a Kd in test [1] of 259 nM.

The values above are taken from publication PMC7658359.
